The text below walks through data of patent publication EP4725970A1.

For this assay, the target named is human BCMA-His (human) (UniProt Q02223). In words: BLI (Octet), 1:1 fit. Background: In BLI a coated tip is dipped into the sample, and binding shifts an interference pattern.
Sequence of human BCMA-His (human) (Q02223 1-54): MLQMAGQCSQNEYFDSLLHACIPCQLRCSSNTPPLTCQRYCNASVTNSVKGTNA

Sequence of JNJ-BCMA/CD3 (Teclistamab) (bispecific antibody) (heavy): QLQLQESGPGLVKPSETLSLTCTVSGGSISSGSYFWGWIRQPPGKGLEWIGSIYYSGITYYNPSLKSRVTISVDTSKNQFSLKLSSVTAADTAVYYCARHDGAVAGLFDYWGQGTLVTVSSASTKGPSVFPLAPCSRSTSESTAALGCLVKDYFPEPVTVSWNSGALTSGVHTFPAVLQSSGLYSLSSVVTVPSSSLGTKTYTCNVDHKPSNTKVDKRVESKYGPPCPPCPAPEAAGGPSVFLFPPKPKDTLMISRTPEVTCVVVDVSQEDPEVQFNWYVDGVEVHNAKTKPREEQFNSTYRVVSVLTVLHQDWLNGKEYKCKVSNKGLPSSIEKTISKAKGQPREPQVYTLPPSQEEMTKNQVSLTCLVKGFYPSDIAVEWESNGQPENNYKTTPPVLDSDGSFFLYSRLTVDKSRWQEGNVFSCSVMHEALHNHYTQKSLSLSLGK
Sequence of JNJ-BCMA/CD3 (Teclistamab) (bispecific antibody) (light): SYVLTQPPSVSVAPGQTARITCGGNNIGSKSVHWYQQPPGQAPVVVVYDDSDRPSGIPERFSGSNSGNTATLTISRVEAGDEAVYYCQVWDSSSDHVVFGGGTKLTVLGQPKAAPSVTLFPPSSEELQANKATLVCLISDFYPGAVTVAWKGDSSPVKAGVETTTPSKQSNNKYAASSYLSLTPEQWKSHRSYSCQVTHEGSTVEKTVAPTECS
Sequence of JNJ-BCMA/CD3 (Teclistamab) (bispecific antibody) (heavy): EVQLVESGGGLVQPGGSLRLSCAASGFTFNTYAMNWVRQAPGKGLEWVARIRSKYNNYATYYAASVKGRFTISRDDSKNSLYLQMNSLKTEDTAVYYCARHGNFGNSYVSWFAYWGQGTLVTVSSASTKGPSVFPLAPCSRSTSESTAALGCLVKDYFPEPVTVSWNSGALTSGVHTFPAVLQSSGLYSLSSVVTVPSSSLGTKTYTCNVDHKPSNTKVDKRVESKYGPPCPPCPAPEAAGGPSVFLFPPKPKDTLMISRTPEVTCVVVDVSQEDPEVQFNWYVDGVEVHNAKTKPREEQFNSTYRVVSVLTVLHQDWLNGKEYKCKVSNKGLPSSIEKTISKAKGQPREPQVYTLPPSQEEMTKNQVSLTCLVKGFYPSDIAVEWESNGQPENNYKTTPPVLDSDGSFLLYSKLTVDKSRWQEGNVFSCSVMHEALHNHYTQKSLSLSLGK
Sequence of JNJ-BCMA/CD3 (Teclistamab) (bispecific antibody) (light): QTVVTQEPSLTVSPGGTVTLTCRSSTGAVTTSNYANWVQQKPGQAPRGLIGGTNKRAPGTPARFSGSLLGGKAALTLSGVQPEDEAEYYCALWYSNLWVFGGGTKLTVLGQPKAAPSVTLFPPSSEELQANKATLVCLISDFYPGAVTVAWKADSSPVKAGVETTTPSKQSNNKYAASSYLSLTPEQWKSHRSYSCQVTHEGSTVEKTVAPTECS
Sequence of REGN-BCMA/CD3 (REGN5458) (bispecific antibody) (VH): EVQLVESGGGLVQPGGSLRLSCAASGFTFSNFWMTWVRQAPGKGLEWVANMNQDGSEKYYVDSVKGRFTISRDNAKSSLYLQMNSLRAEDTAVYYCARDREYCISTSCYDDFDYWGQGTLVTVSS
Sequence of REGN-BCMA/CD3 (REGN5458) (bispecific antibody) (VL): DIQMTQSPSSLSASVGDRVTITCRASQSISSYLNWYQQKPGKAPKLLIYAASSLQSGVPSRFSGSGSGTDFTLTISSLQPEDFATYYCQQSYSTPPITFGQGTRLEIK
Sequence of REGN-BCMA/CD3 (REGN5458) (bispecific antibody) (chain): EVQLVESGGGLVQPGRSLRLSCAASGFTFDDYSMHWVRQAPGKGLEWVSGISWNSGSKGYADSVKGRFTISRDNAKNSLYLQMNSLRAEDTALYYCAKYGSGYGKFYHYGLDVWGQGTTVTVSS

On to “REGN-BCMA/CD3 (REGN5458) (bispecific antibody)”, for which the Kd was determined as 1.13 nM, the koff was 0.000792 s⁻¹ and the kon was found to be 701000 M⁻¹ s⁻¹.

For “Roche-BCMA/CD3 (Alnuctamab) (bispecific antibody)”, the Kd came to 0.205 nM, the koff was found to be 0.000262 s⁻¹ and the kon came to 1.28e+06 M⁻¹ s⁻¹.

The substance “JNJ-BCMA/CD3 (Teclistamab) (bispecific antibody)” registered a Kd of 0.435 nM, a koff of 0.000722 s⁻¹ and a kon of 1.66e+06 M⁻¹ s⁻¹.

One may read the Kd as a measure of binding affinity in units of concentration. A low value points to a tighter complex. For orientation: koff means the first-order rate constant of dissociation. A lower koff goes with a long-lived complex. As a reminder, the kon is a measure of how fast the partners come together. Read a high kon as faster complex formation.
